# Assay results taken from article PMC11655674.
# Target: T1, 6xHis-CerM (Cereibacter sphaeroides WS8N) (UniProt Q3J1N9)
# T1 sequence: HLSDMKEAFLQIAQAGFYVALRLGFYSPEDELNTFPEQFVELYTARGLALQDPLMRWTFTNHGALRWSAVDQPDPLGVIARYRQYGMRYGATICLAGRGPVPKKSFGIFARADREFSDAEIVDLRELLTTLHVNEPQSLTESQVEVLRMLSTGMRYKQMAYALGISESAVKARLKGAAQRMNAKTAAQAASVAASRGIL
# Experiment: EMSA
# Conditions: 10 mM Tris pH 7.5, 1 mM EDTA, 0.1 M KCl, 0.1 mM DTT, 5% glycerol, 0.10 mg/mL BSA, 20 min room temperature; 50 ng DNA, 50-200 ng CerM; 4% native gel in TAE pH 7.
row,Sequence,binding
1,CAAAAAGACAGGTTTGTTTCAAGACAAGTTTTTCTGGATGGAATTGGACGTCGGGCGGGGTTTTGGCACACAATATGCTTGTTATCCGGGCAGGGACAGCTGGAAGATTTACGGAGACATTTCATGAAACATCCCGTCGACGCCCAC (double strand) [14710 fragment F (147 bp)],no binding
2,CAGCTTGTATGAATGGACATATCCAAAAAGACAGGTTTGTTTCAAGACAAGTTTTTCTGGATGGAATTGGACGTCGGGCGGGGTTTTGGCACACAATATGCTTGTTATCCGGGCAGGGACAGCTGGAAGATTTACGGAGACATTTCATGAAACATCCCGTCGACGCCCAC (double strand) [14710 fragment B (170 bp)],binds
3,CCCGAATATTCGCGACTTGCAAAGTTTCGGCGGCGAATTCGCTGCAAATTGCATTGCAGAATGCAAAAGACCTCAGAGGCGAGTGACGTGTCTCCCGTGCTCCCGAGGGATGATCCACAGCGGCGGACGCCGAACGAACCCAGCTTGTATGAATGGACATATC (double strand) [14710 fragment G (163 bp)],no binding
4,CCCGAATATTCGCGACTTGCAAAGTTTCGGCGGCGAATTCGCTGCAAATTGCATTGCAGAATGCAAAAGACCTCAGAGGCGAGTGACGTGTCTCCCGTGCTCCCGAGGGATGATCCACAGCGGCGGACGCCGAACGAACCCAGCTTGTATGAATGGACATATCCAAAAAGACAGGTTTGTTT (double strand) [14710 fragment I (182 bp)],binds
5,CCCGAATATTCGCGACTTGCAAAGTTTCGGCGGCGAATTCGCTGCAAATTGCATTGCAGAATGCAAAAGACCTCAGAGGCGAGTGACGTGTCTCCCGTGCTCCCGAGGGATGATCCACAGCGGCGGACGCCGAACGAACCCAGCTTGTATGAATGGACATATCCAAAAAGACAGGTTTGTTTCAAGACAAG (double strand) [14710 fragment D (191 bp)],binds
6,GACATATCCAAAAAGACAGGTTTGTTTCAAGACAAGTTTTTCTGGATGGAATTGGACGTCGGGCGGGGTTTTGGCACACAATATGCTTGTTATCCGGGCAGGGACAGCTGGAAGATTTACGGAGACATTTCATGAAACATCCCGTCGACGCCCAC (double strand) [14710 fragment H (155 bp)],binds
7,GCGAATTCAAGGTCACGATGATCCAGAAATATCGGCAACTTTAGATTGTATTCAGCTTCGCCTATGCGAGAGTAACTCATGATTAACCATTGGGCATCATTGTAGTTAATACCTAGGGTGGCGATGCGGAGCGCGAGTGATGAGAATACTGCTGGTGGAGGATGATCCGACCACGTCCCGCAGCATCGAATTGATGCTGACTCATGCGAACCTGAACGTCTATTGCACCGATCTCGGCGAGGACGGGATCGATCTGGCCAAGCTCTACGATTACGATCTCATCCTGCTGAGCTCGC (double strand) [ctrA control region (281 bp)],no binding
8,GCGAATTCCGAGAGGGTTCCACGCTTCATCTTCTCATTTCGCTGGGCAGCCGATTGCGGCGCGAGGAGACCGTGCTGCCGTCCCATTCTCAAGTTGCGCAAAAGGTAAGGCGCTGGAAGGCCCGTCTTTTGAGCATCTGGTCAAAAAAATAAGTTATTACATGGGCTTGATGGGTGATCGGCTCAATCCGCGGACAAACCCTGAGGTTGAGGTGAGAGAGACCCGACTCGCGCCCGTTACCGAAAATGTGCAGATGGGAATTCGC (double strand) [15394 regulatory region (249 bp)],binds more weakly
9,GTGGGCGTCGACGGGATGTTTCATGAAATGTCTCCGTAAATCTTCCAGCTGTCCCTGCCCGGATAACAAGCATATTGTGTGCCAAAACCCCGCCCGACGTCCAATTCCATCCAGAAAAACTTGTCTTGA (double strand) [14710 fragment C (129 bp)],no binding
